The values below come from article PMC3375335, “The Interdomain Linker of AAV-2 Rep68 Is an Integral Part of Its Oligomerization Domain: Role of a Conserved SF3 Helicase Residue in Oligomerization” (PLoS Pathogens, 2012).

Like-named read-outs stand apart in the source and are kept apart here.

One test concerns the target T1, Rep68ΔN209 (Adeno-associated virus 2 Srivastava/1982, UniProt P03132).
T1 construct: gene Rep68; residues 210-536, part of linker plus helicase domain; pET-15b, E. coli BL21(DE3)
It counts as binding. Particulars: 36 µM protein, 200 mM NaCl, pH 8.0, 20 °C.

The next test concerns the target T2, Rep68ΔN200 (Adeno-associated virus 2 Srivastava/1982, UniProt P03132).
T2 construct: gene Rep68; Rep68 without the OBD: full interdomain linker plus helicase domain, to residue 536; start 201 read from the name; pET-15b, E. coli BL21(DE3); also printed Rep68Δ200, RepΔN200
It counts as binding. The following applies: 36 µM protein, 200 mM NaCl, pH 8.0, 20 °C.

Test [1] deals with OBD-linker (residues 1-224) of AAV-2 Rep68 (adeno-associated virus 2 (AAV-2)) (UniProt P03132). Description: AUC; sedimentation velocity without nucleotide, 40,000 rpm, 20°C, 25 mM Tris-HCl pH 8.0, 200 mM NaCl, 2 mM TCEP; c(s) by sedfit; constants from a global fit (sedphat) to a monomer-dimer model: dimer to monomers.
Test [2] has as its target Rep68Y224A (adeno-associated virus 2 (AAV-2)) (UniProt P03132). The experiment in a line: AUC.
Test [3] deals with Rep68ΔN200 (adeno-associated virus 2 (AAV-2)) (UniProt P03132). The experiment in a line: AUC; sedimentation velocity without nucleotide, 40,000 rpm, 20°C, 25 mM Tris-HCl pH 8.0, 200 mM NaCl, 2 mM TCEP; c(s) by sedfit; constants from a global fit (sedphat) to a monomer-dimer model: dimer to monomers.
The target is the same in test [4]. The experiment in a line: AUC.
The target is the same in test [5]. The experiment in a line: cross-linking; DMP (dimethyl pimelimidate), 30 fold molar excess, 60 min at room temperature, protein 2 mg/ml, 25 mM HEPES, 200 mM NaCl, pH 8.0; 8% SDS-PAGE.
Test [6] has as its target Rep68ΔN209 (adeno-associated virus 2 (AAV-2)) (UniProt P03132). The experiment in a line: AUC.
The target of test [7] is Rep68ΔN214 (adeno-associated virus 2 (AAV-2)) (UniProt P03132). Description: AUC.
For test [8], the target named is T3, AAV-2 Rep40 (adeno-associated virus 2 (AAV-2), UniProt P03132 225-536). The experiment in a line: AUC; sedimentation velocity without nucleotide, 40,000 rpm, 20°C, 25 mM Tris-HCl pH 8.0, 200 mM NaCl, 2 mM TCEP; c(s) by sedfit; constants from a global fit (sedphat) to a monomer-dimer model: dimer to monomers. Particulars: both partners purified.
For test [9], the target named is T3, AAV-2 Rep40. The description is as above. Particulars: both partners purified. This is another data set of the same source.

As to `Nc1ncnc2c1ncn2[C@@H]1O[C@H](COP(=O)(O)OP(=O)(O)O)[C@@H](O)[C@H]1O` [ADP], the “sedimentation velocity ultracentrifugation, nucleotide-induced oligomerization” value at Rep68ΔN209 (5 mM ADP) was “ADP produces two main populations sedimenting at ∼3S and ∼7S”; at Rep68ΔN200 (5 mM ADP), “ADP produces two main populations sedimenting at ∼3S and ∼7S”.
Take `Nc1ncnc2c1ncn2[C@@H]1O[C@H](COP(=O)(O)OP(=O)(O)OP(=O)(O)O)[C@@H](O)[C@H]1O` [ATP]: the “sedimentation velocity ultracentrifugation, nucleotide-induced oligomerization” value was “ATP on the other hand, seems to generate more stable species at ∼7S” on Rep68ΔN209 (5 mM ATP) and “ATP on the other hand, seems to generate more stable species at ∼7S” on Rep68ΔN200 (5 mM ATP).
The stoichiometry N is a count of units in the complex or per binding partner. In test [1], “OBD-linker (residues 1-224) of AAV-2 Rep68 (from UniProt P03132 1-224) (domain or fragment)” had a stoichiometry N of 2.
Consider “Rep68Y224A (from UniProt P03132 1-536) (natural protein)”, for which the stoichiometry N in test [2] came out at 2.
As a reminder, the Kd is the concentration at which binding is half-saturated. As for “Rep68ΔN200 (from UniProt P03132 201-536) (domain or fragment)”, in test [3], the Kd is 79 µM, the logKa was 4.1 and the stoichiometry N came out at 2. Also, the stoichiometry N in test [4] turned out to be 2. Moreover, in [5], the stoichiometry N turned out to be 2.
The molecule “Rep68ΔN209 (from UniProt P03132 210-536) (domain or fragment)” yielded a stoichiometry N in test [6] of 2.
In [7], “Rep68ΔN214 (from UniProt P03132 215-536) (domain or fragment)” yielded a stoichiometry N of 2.

B1: AAV-2 Rep40 (natural protein)
chain: MELVGWLVDKGITSEKQWIQEDQASYISFNAASNSRSQIKAALDNAGKIMSLTKTAPDYLVGQQPVEDISSNRIYKILELNGYDPQYAASVFLGWATKKFGKRNTIWLFGPATTGKTNIAEAIAHTVPFYGCVNWTNENFPFNDCVDKMVIWWEEGKMTAKVVESAKAILGGSKVRVDQKCKSSAQIDPTPVIVTSNTNMCAVIDGNSTTFEHQQPLQDRMFKFELTRRLDHDFGKVTKQEVKDFFRWAKDHVVEVEHEFYVKKGGAKKRPAPSDADISEPKRVRESVAQPSTSDAEASINYADRLARGHSL
modifications: Start at 225 follows from the text; the C-terminus of the assayed Rep40 is not given, so full-length Rep40 (to 536) is taken; 225-490 is given only for the crystal structure 1S9H. ATP or ADP added …
In turn, B1 returned a Kd with AAV-2 Rep40 [8] of 730 µM. In the test with AAV-2 Rep40 [9], the “stoichiometry N” value came out at 2.
